Numbering of substitutions follows the chain as printed. One block for each binder: values may come before it.
Tests used:
cynomolgus monkey TSLP [1] = target: T1, cynomolgus monkey TSLP (cynomolgus monkey); experiment: indirect ELISA, coated cyno TSLP; 95% CI in brackets
T1 construct: Recombinant, bought (ACROBiosystems); also called cynoTSLP; cyno TSLP
T1 chain: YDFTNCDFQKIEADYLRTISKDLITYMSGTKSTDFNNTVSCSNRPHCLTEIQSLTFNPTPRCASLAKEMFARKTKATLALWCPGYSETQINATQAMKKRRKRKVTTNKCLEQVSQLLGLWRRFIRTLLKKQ
Method: (§1) The next day, the plates were washed three times with ELISA wash buffer and blocked with ELISA assay diluent B (BioLegend) for one hour at room temperature (RT). […] Antibody binding was assessed using an 8-point titration curve in triplicates (1:3 serial dilution starting at 10 μg/mL). The plate was washed three times with ELISA wash buffer, and HRP-conjugated anti-human IgG-HRP secondary antibody (Jackson ImmunoResearch Laboratories, Inc.) was added to wells at a 1:5000 dilution in 1×ELISA assay diluent. Secondary antibody was added to detect binding of the primary antibody to the antigen. The plate was incubated for 30 minutes at room temperature with the secondary detection antibody, then the plates were washed three times with ELISA wash buffer and developed with TMB substrate solution (Invitrogen, Waltham, MA). The HRP enzymatic reaction was stopped after about 1 minute with acidic stop solution (Invitrogen), and the absorbance at 450 nm on a Biotek plate reader.
(§2) The EC₅₀ values were calculated using Graphpad Prism 9.2.0 by fitting a four-parameter non-linear regression curve to the average absorbance values of three technical replicates per concentration with three independent experiments. […] N=4 independent experiments with 3 technical replicates. […] N=3 independent experiments with 3 technical replicates.

[2] = target: T2, human thymic stromal lymphopoietin (TSLP) (human, UniProt Q969D9 29-159); experiment: cell-based or functional assay
cynomolgus monkey TSLP [3] = target: T1, cynomolgus monkey TSLP; experiment: cell-based or functional assay
mouse TSLP = target: T3, mouse TSLP (mouse, UniProt Q9JIE6 20-140); experiment: direct ELISA: plate coated with 2 µg/mL mouse TSLP, anti-human IgG-HRP, absorbance at 450 nm
T3 construct: also called mouse TSLP cytokine
T3 sequence (looked up): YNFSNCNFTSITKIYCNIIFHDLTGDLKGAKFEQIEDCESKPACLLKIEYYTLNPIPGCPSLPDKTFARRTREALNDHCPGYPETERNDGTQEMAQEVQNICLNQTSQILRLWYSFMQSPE
Method: as §1, §2

[4] = target: T2, human thymic stromal lymphopoietin …; experiment: indirect ELISA, coated human TSLP; 95% CI in brackets
Method: as §1, §2

human IL-7 = target: T4, human IL-7 (human, UniProt P13232 26-177); experiment: direct ELISA: plate coated with 2 µg/mL human IL-7, anti-human IgG-HRP, absorbance at 450 nm
T4 construct: also called hIL-7
T4 sequence (looked up): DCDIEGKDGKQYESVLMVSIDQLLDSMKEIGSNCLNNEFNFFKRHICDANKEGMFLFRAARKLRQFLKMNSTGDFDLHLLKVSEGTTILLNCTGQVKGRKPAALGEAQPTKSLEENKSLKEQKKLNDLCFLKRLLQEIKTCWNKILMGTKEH

[5] = target: T2, human thymic stromal lymphopoietin …; experiment: indirect ELISA, coated recombinant hTSLP
Method: The next day, the plate was washed three times with ELISA Wash Buffer (PBS-Tween 0.5%), blocked with 1×ELISA assay diluent (BioLegend) for one hour. […] The plate was washed three times with ELISA Wash Buffer, and horseradish peroxidase (HRP)-conjugated anti-human IgG Fc secondary antibody (Promega, Madison, WI) at 1:2000 dilution in 1×ELISA assay diluent was added to detect binding of the primary antibody to the antigen. The plate was incubated for 30 minutes at 37° C. with the secondary detection antibody, then the plate was washed and developed with tetramethyl benzidine (TMB) substrate solution (Thermo Fisher Scientific, Waltham, MA). The HRP enzymatic reaction was stopped after about 1 minute with acidic stop solution (Thermo Fisher Scientific), and the absorbance at 450 nm was determined using a standard plate reader. The EC₅₀ values were calculated by fitting a four-parameter non-linear regression line to the average of two technical replicates per concentration.

[6] = target: T2, human thymic stromal lymphopoietin …; experiment: KinExA, solution equilibrium, 25 C
Method: The solution equilibrium binding experiments were performed using KinExA 3200 instrument equipped with an autosampler (Sapidyne Instruments, Boise, ID, USA). All analyses were performed at 25° C., and all samples were prepared in 1× phosphate-buffered saline (PBS) filtered buffer supplemented with 1 mg/mL bovine serum albumin (BSA) and 0.02% sodium azide. […] The beads were washed with blocking buffer (1 M Tris supplemented with 10 mg/mL BSA, pH 8.0) and rocked for 1 hour.
The sample injection volumes and flow rates were varied depending upon the antibody tested. […] The concentration, volume and flow rate of the secondary antibody were varied to achieve a signal at less than 1.0 V.
A 1:1 binding equilibrium model was used with the titrant selected as the reference concentration. The drift correction option was used where appropriate.

[7] = target: T2, human thymic stromal lymphopoietin …; experiment: blocking ELISA: antibody titrated against hTSLP-biotin, coated hTSLPR/hIL-7Rα-Fc
Method: A 96 well half area flat bottom plate was coated with 50 μL of recombinant heterodimeric human TSLPR and human IL-7Rα Fe tagged fusion protein (2 μg/mL) in ELISA coating buffer. The plate was incubated overnight at 4° C. and was washed thrice with 150 μL ELISA Wash Buffer (1×PBS-Tween 0.5%) the next day. The plate was blocked with 50 μL of ELISA assay diluent for one hour at 37° C. and was washed three times with 150 μL of ELISA wash buffer. […] The ELISA plate was incubated for 1 hour at 37° C. followed by washing three times with ELISA wash buffer. HRP-Streptavidin (Thermo Fisher Scientific) was diluted 1:2000 in ELISA assay diluent 50 μl was added to each well and incubated for 30 minutes at 37° C. followed by washing three times with ELISA wash buffer. The ELISA was developed by addition of 50 μL of TMB substrate (Thermo Fisher Scientific) and incubation for 2-3 minutes at room temperature (protected from light). The reaction was stopped with acidic stop solution (Thermo Fisher Scientific), and the absorbance was read at 450 nm wavelength using a standard plate reader. Percent inhibition of signal and IC₅₀ values were determined.
A blocking ELISA was performed by coating an ELISA plate with hTSLPR overnight. […] The ELISA plate was incubated for 1 hour at 37° C., followed by washing of the plate. […] The ELISA was developed with TMB substrate, and the HRP enzymatic reaction was stopped with sulfuric acid solution.

B1: AB-2a (antibody, human IgG1, lambda)
heavy: not shown
light: SYVLTQPPSVSVAPGQTARITCGGNNIGSKSVHWYQQKPGQAPVLVVYDDSDRPSWIPERFSGSNSGNTATLTISRGEAGDEADYYCQIWDSSSSLVVFGGGTKLTVLGQPKAAPSVTLFPPSSEELQANKATLVCLISDFYPGAVTVAWKADSSPVKAGVETTTPSKQSNNKYAASSYLSLTPEQWKSHRSYSCQVTHEGSTVEKTVAPTECS
- EC80 (cynomolgus monkey TSLP [1]): 0.1 µg/mL
- IC50, human TSLPR/IL-7Rα Ba/F3 STAT5-luciferase assay [2]: 0.02 µg/mL
- IC50, cyno TSLPR/IL-7Rα Ba/F3 STAT5-luciferase assay (cynomolgus monkey TSLP [3]): 0.03 µg/mL
- binding result (mouse TSLP): no binding (tested: about 5 µg/ml)
- EC50 [4]: 0.03 µg/mL
- EC80 [4]: 0.09 µg/mL
- EC90 [4]: 0.15 µg/mL

B2: AB-2b (antibody, human IgG1, lambda)
heavy: QMQLVESGGGVVQPGRSLRLSCAASGFTFRTYGMHWVRQAPGKGLEWVAVVWYDGSYTHYADSVKGRFTITRDNSKNTLNLQMNSLRAEDTAVYYCARSPQWEEIFEAMDIWGQGTMVTVSSASTKGPSVFPLAPSSKSTSGGTAALGCLVKDYFPEPVTVSWNSGALTSGVHTFPAVLQSSGLYSLSSVVTVPSSSLGTQTYICNVNHKPSNTKVDKRVEPKSCDKTHTCPPCPAPELLGGPSVFLFPPKPKDTLYITREPEVTCVVVDVSHEDPEVKFNWYVDGVEVHNAKTKPREEQYNSTYRVVSVLTVLHQDWLNGKEYKCKVSNKALPAPIEKTISKAKGQPREPQVYTLPPSREEMTKNQVSLTCLVKGFYPSDIAVEWESNGQPENNYKTTPPVLDSDGSFFLYSKLTVDKSRWQQGNVFSCSVMHEALHNHYTQKSLSLSPGK
light: B1 light
- EC80 (cynomolgus monkey TSLP [1]): 0.1 µg/mL
- IC50, human TSLPR/IL-7Rα Ba/F3 STAT5-luciferase assay [2]: 0.03 µg/mL
- IC50, cyno TSLPR/IL-7Rα Ba/F3 STAT5-luciferase assay (cynomolgus monkey TSLP [3]): 0.04 µg/mL
- binding result (mouse TSLP): no binding (tested: about 5 µg/ml)
- EC50 [4]: 0.03 µg/mL
- EC80 [4]: 0.1 µg/mL
- EC90 [4]: 0.18 µg/mL

B5: AB-8 (antibody, V domains shown)
VH: QMQLVESGGGVVQPGRSLRLSCAASGFTFRTYGMHWVRQAPGKGLEWVAVIWYDGSYTHYADSVKGRFTITRDNSKNTLNLQMNSLRAEDTAVYYCARSPQWEDIFEAFDIWGQGTMVTVSS
VL: SYVLTQPPSVSVAPGQTARITCGGNNIGSKSVHWYQQKPGQAPVLVVYDDSDRPSWIPERFSGSNSGNTATLTISRGEAGDEADYYCQVWDSSSSLVVFGGGTKLTVL
- Kd [6]: 0.000335 nM

B6: AB-7 (antibody, V domains shown)
VH: B5 VH with D54S, S56A, T58I, A97S, F109M
VL: B5 VL with I27L, K30Y, S92M
- EC50 [5]: 0.29 nM
- Kd [6]: 0.000184 nM
- IC50 [7]: 0.162 nM

B7: AB-6 (antibody, V domains shown)
VH: B5 VH with I51V, Y57D, T58I, A97S, A108S, F109M
VL: B5 VL with V89I, S95D, L96H
- EC50 [5]: 0.397 nM
- Kd [6]: 0.000133 nM

B8: AB-1 (antibody, V domains shown)
VH: B5 VH with I51V, D54S, A97S, F109M
VL: B5 VL
- EC50 [5]: 0.265 nM
- Kd [6]: 0.000208 nM

B10: AB-9 (antibody, V domains shown)
VH: B5 VH with D104S
VL: B5 VL
- Kd [6]: 0.000496 nM
- IC50 [7]: 0.227 nM

B14: AB-4 (antibody, V domains shown)
VH: B5 VH with D54S, Y57D, A108S, F109M, I111V
VL: B5 VL with N26Y, K30F, V89I, W90Y, D91V, S93A, S95R
- EC50 [5]: 0.26 nM
- Kd [6]: 0.000208 nM

B15: AB-5 (antibody, V domains shown)
VH: B5 VH with I51V, S56Y, Y57D, A97S, A108S, F109M
VL: B5 VL with I27L, S92M, S95D
- EC50 [5]: 0.264 nM
- Kd [6]: 0.00014 nM
- IC50 [7]: 0.246 nM

B16: AB-3 (antibody, V domains shown)
VH: B5 VH with S56T, D104S
VL: B5 VL
- EC50 [5]: 0.237 nM
- Kd [6]: 0.000302 nM
- IC50 [7]: 0.232 nM

B17: AB-2 (antibody, human IgG1, V domains shown)
VH: B5 VH with I51V, D104E, F109M
VL: B5 VL with V89I
- EC50 [5]: 0.204 nM
- Kd [6]: 0.000123 nM
- IC50 [7]: 0.29 nM

Now from value to binder:

- binding result (mouse TSLP): no binding (tested: about 5 µg/ml)
- binding result (human IL-7): no binding (tested: about 5 µg/ml)
B3: Reference Antibody (antibody, human IgG2, lambda, V domains shown)
VH: B5 VH with Y57N, T58K, S99A, D104L, I105V, F106H
VL: SYVLTQPPSVSVAPGQTARITCGGNNLGSKSVHWYQQKPGQAPVLVVYDDSDRPSWIPERFSGSNSGNTATLTISRGEAGDEADYYCQVWDSSSDHVVFGGGTKLTVLG
notes: Comparator anti-TSLP antibody with an IgG2 heavy chain constant domain and lambda light chain

- EC50 [5]: 0.173 nM
- Kd [6]: 0.000754 nM
- IC50 [7]: 0.243 nM
B4: AB-11 (antibody, V domains shown)
VH: B5 VH with W52S, D54S, T58I, A97T, D104E, I105V, F106Y, F109L
VL: B5 VL with K30F, D91S, S93T, S95R, L96H

- EC50 [5]: 0.286 nM
- Kd [6]: 0.000395 nM
- IC50 [7]: 0.251 nM
B9: AB-10 (antibody, V domains shown)
VH: B5 VH with D54S, S56T, Y57T, A97S, A108S, F109M
VL: B5 VL with S31N, S94D, S95F

- EC50 [5]: 0.264 nM
- Kd [6]: 0.000877 nM
- IC50 [7]: 0.186 nM
B11: AB-14 (antibody, V domains shown)
VH: B5 VH with Y57T, T58K, S99A, D104L, I105V, F106H
VL: B5 VL with S31N, S92E, S95D, L96E

- EC50 [5]: 0.291 nM
- Kd [6]: 0.00102 nM
- IC50 [7]: 0.29 nM
B12: AB-12 (antibody, V domains shown)
VH: B5 VH with I51V, Y57N, S99A, D104S, I105V, F106H
VL: B5 VL with S29R, K30F, D91V, S93T, S95D, L96K

- EC50 [5]: 0.23 nM
- IC50 [7]: 0.223 nM
B13: AB-13 (antibody, V domains shown)
VH: B5 VH with W52S, Y57T, T58K, S99A, D104S, I105V, F106Y
VL: B5 VL with I27L, K30F, S94E, S95D
